From publication PMC3115021, “Dynamics of Cdk1 Substrate Specificity during the Cell Cycle” (Molecular Cell, 2011)

B1: TOS8: purified yeast protein tested as Cdk1 substrate (protein, UniProt P53147 1-276, looked up)
Homeobox protein TOS8: MGTSIVNLNQKIELPPIQVLFESLNRENETKPHFEERRLYQPNPSFVPRTNIAVGSPVNPVPVSSPVFFIGPSPQRSIQNHNAIMTQNIRQYPVIYNNNREVISTGERNYIITVGGPPVTSSQPEYEHISTPNFYQEQRLAQPHPVNESMMIGGYTNPQPISISRGKMLSGNISTNSVRGSNNGYSAKEKKHKAHGKRSNLPKATVSILNKWLHEHVNNPYPTVQEKRELLAKTGLTKLQISNWFINARRRKIFSGQNDANNFRRKFSSSTNLAKF
B2: ACE2: purified yeast protein tested as Cdk1 substrate (protein, UniProt P21192 1-770, looked up)
Metallothionein expression …: MDNVVDPWYINPSGFAKDTQDEEYVQHHDNVNPTIPPPDNYILNNENDDGLDNLLGMDYYNIDDLLTQELRDLDIPLVPSPKTGDGSSDKKNIDRTWNLGDENNKVSHYSKKSMSSHKRGLSGTAIFGFLGHNKTLSISSLQQSILNMSKDPQPMELINELGNHNTVKNNNDDFDHIRENDGENSYLSQVLLKQQEELRIALEKQKEVNEKLEKQLRDNQIQQEKLRKVLEEQEEVAQKLVSGATNSNSKPGSPVILKTPAMQNGRMKDNAIIVTTNSANGGYQFPPPTLISPRMSNTSINGSPSRKYHRQRYPNKSPESNGLNLFSSNSGYLRDSELLSFSPQNYNLNLDGLTYNDHNNTSDKNNNDKKNSTGDNIFRLFEKTSPGGLSISPRINGNSLRSPFLVGTDKSRDDRYAAGTFTPRTQLSPIHKKRESVVSTVSTISQLQDDTEPIHMRNTQNPTLRNANALASSSVLPPIPGSSNNTPIKNSLPQKHVFQHTPVKAPPKNGSNLAPLLNAPDLTDHQLEIKTPIRNNSHCEVESYPQVPPVTHDIHKSPTLHSTSPLPDEIIPRTTPMKITKKPTTLPPGTIDQYVKELPDKLFECLYPNCNKVFKRRYNIRSHIQTHLQDRPYSCDFPGCTKAFVRNHDLIRHKISHNAKKYICPCGKRFNREDALMVHRSRMICTGGKKLEHSINKKLTSPKKSLLDSPHDTSPVKETIARDKDGSVLMKMEEQLRDDMRKHGLLDPPPSTAAHEQNSNRTLSNETDAL
B3: BOP3: purified yeast protein tested as Cdk1 substrate (protein, UniProt P53958 1-396, looked up)
Protein BOP3: MSTFNSYSQPKESNDNSHNNVNKSKSLLDIIFGTNVSEWAFSENALMKAMDLKIEQEKTKQQYYKLENLNRSIELFKLASSSGLPINQIHKLFNTDHGVPASSPMKAGGNQPHNNTEGTQSSENLPRLNGSMKSLKPLNMNTVSPTPMSRQPSPYKFPASSSTGGISHSTVTNVQRRANSPARIGASAVAALNDNISIKEEDVARRIPSGTKSQESPLNKKPTSLHSRNLSLPIGKFTNPNIPSTMTSILSFNRDQQQPLSQPLPPPPQQQQDLHTHNLHTIPRKPGMVQKKHRRARSTSSFGVIDLSIIDEAKEKQVQRSPSPIHSNVSVALTSHDKPIESNMKEQPNMLQSVREGRQVHDDLDDRTCSESSSRNESPVRTITKDNSVGKILNST
B4: STB1: purified yeast protein, Cln2-specific Cdk1 target (protein, UniProt P42845 2-420, looked up)
Protein STB1: SQPQMSPEKEQELASKILHRAELAQMTRQLKLGLSNVPSTKRKQDSTTKKRSGEDAEDVDEDHKTLLEAISPAKKPLHDDTNKMTVISPVKFVEKPNTPPSSRQRKAEDRSQQIKPRKEDTPSTPRASATPIILPHASSHYQRPHDKNFMTPKRNNNNSSNHSNNNNNIKKKAAGSKDAPQDSDNTAGADLLMYLATSPYNKSSHHGTPMAVRMPTTPRSYHYASQLSLNGNTASTSNDAVRFSHIKPSASSPQSTFKSNLLPNFPDESLMDSPSLYLSNNNGSVQATLSPQQRRKPTTNTLHPPSNVPTTPSRELNGTNFNLLRTPNFNMGDYLHNLFSPSPRVPAQQGASNTSASIPSVPAMVPGSSSNTSAIATAAISSHTTNNFLDMNANGIPLIVGPGTDRIGEGESIDDKLTD
B5: MSA1: purified yeast protein tested as Cdk1 substrate (protein, UniProt Q08471 1-629, looked up)
G1-specific transcription …: MDKSMIKKRGRPPITKDYPNPLQSPMAHSSMQVQKQGPHSFAKPLMKVGQSSPSPNKRRLSIDHHHNLAATTRKGRYRGVLLSTPTKKSSTNGSTPISTPSSNDSYNNTVFSETRKTFLQSSPPIMTSSPAFQKKNDYMFPSQEQFKLSLTITESGKAVIAGSLPFSPSSKSSHLMNNNNKKIMQNEKIHKGSKKNAPKFEKRRILSLLKQMKNEKYCDTDTLPEAPPAKPSRSDIIDTELPTIIETSASPIGSARNNNILLSQPPQSPPSSAQLKPPSTPKSSLQFRMGFTPNVALNSVSLSDTISKSTNAVGASNNNNQNGNSISNIADANTLLTLTNSPGVFLSPRNKMLPKSTTASNEQQQEFVFKFSSGDPLLLTDDADGNWPEMLFNVSNTPRRQKCFNTPPSWINFGSPGLFSPPRSSNVMVNGTTVATASDSGNVHRQLQAQLEAQVQVQSQSNSPTQRQQQQRQFQIPPPHINMNSSPPQINIASPPHQSMSRVSSIYFNKEKTTTGVANMLGNTKSENLQPPANLFTAAHGPSTPRNQEFQLPTLIECTPLIQQTMNGSLGTKYIPGTSISNSATPNLHGFPVGTGKAPSSFDDSLKQNPYSNKQDDARTALKRLIDDQ
B6: YOX1: purified yeast protein tested as Cdk1 substrate (protein, UniProt P34161 1-385, looked up)
Homeobox protein YOX1: MSQETKMLPSLSSLLSGTEISSSPVSPSFTNPRTSFHLDDRGTIKLPPLNTSINRPRSVESALRHTVTSLHENSSAYGDDMLKHTQSDSALSSQLNSSQETVDESHENLLLTPLNSKKRDYSVSSKKNDILTPLSAAKSIIIPSASKEKRRAFAFITHSQETFPKKEPKIDNAPLARRKRRRTSSQELSILQAEFEKCPAPSKEKRIELAESCHMTEKAVQIWFQNKRQAVKRQRIATSKSTTIIQTVSPPSPPLDVHATPLASRVKADILRDGSSCSRSSSSSPLENTPPRPHHSLNRRSSTPSIKRSQALTFHLNPQKKTLTPVKTSPNSRVNKLINSIDHSPSKAKRPVSNPSGSPKRKRKFGFKIVDQQPLKDLDPNAFRG

Assays:
Experiment in all cases: Quantitative phosphorylation assay of T33-Sic1ΔC constructs and recombinant substrates
Assay type in all cases: biochemical
Clb5-Cdk1 = biological target: T1, Clb5-Cdk1 (Saccharomyces cerevisiae, UniProt P00546+P30283); settings: for kcat/KM, Clb5: Table S2, purified protein substrate, relative values, not divided by [S]; for effect of competitor peptide on Clb5-dependent phosphorylation of Sic1ΔC: synthetic competitor peptide 4 mM, result in words
T1 construct: We purified the four cyclin-Cdk1 complexes from yeast; made in house; host or cells: S. cerevisiae strain DOM0076 (gal-CLB5-TAP, sic1 deleted); Cks1 from bacteria
T1 sequence (P00546 2-298 limits assumed): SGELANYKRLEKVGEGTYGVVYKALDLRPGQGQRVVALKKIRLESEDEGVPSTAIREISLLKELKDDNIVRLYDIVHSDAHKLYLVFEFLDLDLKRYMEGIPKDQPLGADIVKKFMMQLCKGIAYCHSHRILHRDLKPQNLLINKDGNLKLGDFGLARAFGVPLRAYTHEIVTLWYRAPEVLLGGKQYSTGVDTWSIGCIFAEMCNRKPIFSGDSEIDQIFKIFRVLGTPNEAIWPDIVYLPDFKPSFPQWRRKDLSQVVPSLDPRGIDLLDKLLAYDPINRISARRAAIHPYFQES
T1 sequence (P30283 whole entry partner): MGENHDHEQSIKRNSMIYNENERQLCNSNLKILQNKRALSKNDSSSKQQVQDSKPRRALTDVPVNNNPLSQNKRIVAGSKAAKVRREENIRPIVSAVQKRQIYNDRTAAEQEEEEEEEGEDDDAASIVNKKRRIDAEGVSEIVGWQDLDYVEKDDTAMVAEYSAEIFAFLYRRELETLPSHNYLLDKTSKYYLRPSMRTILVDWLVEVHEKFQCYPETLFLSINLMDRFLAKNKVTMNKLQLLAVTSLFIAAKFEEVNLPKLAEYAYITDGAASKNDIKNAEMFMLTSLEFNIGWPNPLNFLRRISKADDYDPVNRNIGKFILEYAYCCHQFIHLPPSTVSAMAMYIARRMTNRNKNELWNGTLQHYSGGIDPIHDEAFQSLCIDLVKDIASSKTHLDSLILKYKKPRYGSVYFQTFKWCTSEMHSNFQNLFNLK
T1 sequence (P20486 whole entry partner): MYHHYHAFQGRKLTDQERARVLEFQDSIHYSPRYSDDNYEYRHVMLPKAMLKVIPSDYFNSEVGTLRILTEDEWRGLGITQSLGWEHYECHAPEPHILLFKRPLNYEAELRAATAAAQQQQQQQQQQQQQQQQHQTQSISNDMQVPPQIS
Protocol: (§1) For the quantitative phosphorylation assays of T33-Sic1ΔC constructs and recombinant substrates, substrate concentrations were kept in the range of 0.5–2 μM (in the linear [S] versus v0 range, several-fold below the estimated KM value), and initial velocity conditions were defined as an initial substrate turnover of up to 10% of the total turnover. For the steady-state peptide kinetics of the Histone peptide PKTPKKAKKL, a similar assay composition was used as for protein substrates, and phosphocellulose paper was used for the quantification of the phosphorylated substrate. […]
(§2) similar substrate specificity as the Cln2-Cdk1 version purified using a TAP-tag. N-terminally 6His-tagged recombinant T33-Sic1ΔC constructs and substrates were cloned into the pET28a vector and purified by standard cobalt affinity chromatography and elution with 200 mM imidazole. 6His-Fin1 was purified as described previously (Woodbury and Morgan, 2007). Substrates cloned into the pGEX-4T-1 were purified on glutathione agarose columns using 5 mM reduced glutathione for elution. Cks1 was purified as described previously (Reynard et al., 2000). The optimal working concentration for purified Cks1 was taken as 500 nM based on optimization performed for cyclin-Cdk1 preparations and T33-Sic1ΔC as a substrate.
(§3) For the quantitative phosphorylation assays of T33-Sic1ΔC constructs and recombinant substrates, substrate concentrations were kept in the range of 0.5-2 μM (in the linear [S] vs v0 range, several-fold below the estimated KM value), and the initial velocity conditions were defined as an initial substrate turnover ranging up to 10% of the total turnover. The latter was estimated by a long-term incubation with excess amounts of cyclin-Cdk1 and 32P-γ-ATP in the standard reaction mixture given below. About 1-10 nM of purified kinase complex was used, reaction aliquots were taken at two or more time points, and the reaction was stopped by SDS-PAGE sample buffer. The relative kcat/KM values for the substrates were calculated as the ratio of v0/[S], which was determined from at least two independent experiments. The basal composition of the assay mixture contained 50 mM Hepes, pH 7.4, 100 mM NaCl, 0.1% NP-40, 20 mM imidazole, 0.1 mg/ml 2HA peptide, 2% glycerol, 2 mM EGTA, 0.2 mg/ml BSA, […], and 500 μM ATP (with added 32P-γ-ATP (Perkin Elmer)).
(§4) About 1-10 nM of purified kinase complex was used, reaction aliquots were taken at two or more time points, and the reaction was stopped by SDS-PAGE sample buffer. For the steady-state peptide kinetics of the Histone peptide PKTPKKAKKL, a similar assay composition was used as for protein substrates and the standard phosphocellulose method was applied for the quantification of the phosphorylated substrate (Loog and Morgan, 2005). Synthetic peptides as competitor agents were used in 4 mM final concentrations. […]

Clb3-Cdk1 = biological target: T2, Clb3-Cdk1 (Saccharomyces cerevisiae, UniProt P00546+P24870); settings: Table S2; purified protein substrate; relative values, not divided by [S]
T2 construct: We purified the four cyclin-Cdk1 complexes from yeast; made in house; host or cells: S. cerevisiae strain DOM0957 (gal-CLB3-TAP, sic1 deleted); Cks1 from bacteria
T2 sequence (P00546 2-298 limits assumed): as the sequence (P00546 2-298 limits assumed) above
T2 sequence (P24870 whole entry partner): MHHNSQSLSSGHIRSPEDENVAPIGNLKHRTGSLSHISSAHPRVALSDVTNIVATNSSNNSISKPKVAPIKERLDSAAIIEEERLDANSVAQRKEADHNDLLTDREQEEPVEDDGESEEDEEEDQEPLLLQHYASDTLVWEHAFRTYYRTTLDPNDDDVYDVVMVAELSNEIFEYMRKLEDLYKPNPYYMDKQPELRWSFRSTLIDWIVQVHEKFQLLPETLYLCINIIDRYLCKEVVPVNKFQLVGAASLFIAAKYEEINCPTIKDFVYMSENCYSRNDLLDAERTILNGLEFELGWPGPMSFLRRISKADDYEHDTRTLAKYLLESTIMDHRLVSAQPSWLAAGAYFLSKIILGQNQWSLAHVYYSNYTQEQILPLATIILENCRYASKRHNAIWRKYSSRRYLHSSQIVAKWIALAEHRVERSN
T2 sequence (P20486 whole entry partner): as the sequence (P20486 whole entry partner) above
Protocol: as §1, §2, §3, §4

Cln2-Cdk1 = biological target: T3, Cln2-Cdk1 (Saccharomyces cerevisiae, UniProt P00546+P20438); settings: for kcat/KM, Cln2: Table S2, purified protein substrate, relative values, not divided by [S]
T3 construct: We purified the four cyclin-Cdk1 complexes from yeast; made in house; host or cells: S. cerevisiae strain DMY305 (galactose-induced); Cks1 from bacteria
T3 sequence (P00546 2-298 limits assumed): as the sequence (P00546 2-298 limits assumed) above
T3 sequence (P20438 whole entry partner): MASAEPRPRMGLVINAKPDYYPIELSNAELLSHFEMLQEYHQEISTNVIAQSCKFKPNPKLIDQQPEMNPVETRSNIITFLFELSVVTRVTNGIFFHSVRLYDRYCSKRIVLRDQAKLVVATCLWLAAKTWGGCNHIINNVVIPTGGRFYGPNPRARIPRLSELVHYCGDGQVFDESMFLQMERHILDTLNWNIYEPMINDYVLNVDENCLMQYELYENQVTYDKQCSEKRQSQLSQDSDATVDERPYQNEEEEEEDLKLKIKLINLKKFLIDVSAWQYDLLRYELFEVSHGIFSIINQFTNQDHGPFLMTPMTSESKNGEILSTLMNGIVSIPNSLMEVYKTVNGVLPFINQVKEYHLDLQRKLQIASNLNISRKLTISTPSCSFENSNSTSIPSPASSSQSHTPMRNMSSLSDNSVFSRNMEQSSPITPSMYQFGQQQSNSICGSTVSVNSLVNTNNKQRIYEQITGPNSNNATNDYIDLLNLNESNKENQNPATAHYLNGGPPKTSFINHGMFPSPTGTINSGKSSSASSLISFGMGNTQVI
T3 sequence (P20486 whole entry partner): as the sequence (P20486 whole entry partner) above
Protocol: as §1, §2, §3, §4

Clb2-Cdk1 = biological target: T4, Clb2-Cdk1 (Saccharomyces cerevisiae, UniProt P00546+P24869); settings: Table S2; purified protein substrate; relative values, not divided by [S]
T4 construct: We purified the four cyclin-Cdk1 complexes from yeast; made in house; host or cells: S. cerevisiae strain DOM0077 (gal-CLB2-TAP, sic1 deleted); Cks1 from bacteria
T4 sequence (P00546 2-298 limits assumed): as the sequence (P00546 2-298 limits assumed) above
T4 sequence (P24869 2-491 partner limits assumed): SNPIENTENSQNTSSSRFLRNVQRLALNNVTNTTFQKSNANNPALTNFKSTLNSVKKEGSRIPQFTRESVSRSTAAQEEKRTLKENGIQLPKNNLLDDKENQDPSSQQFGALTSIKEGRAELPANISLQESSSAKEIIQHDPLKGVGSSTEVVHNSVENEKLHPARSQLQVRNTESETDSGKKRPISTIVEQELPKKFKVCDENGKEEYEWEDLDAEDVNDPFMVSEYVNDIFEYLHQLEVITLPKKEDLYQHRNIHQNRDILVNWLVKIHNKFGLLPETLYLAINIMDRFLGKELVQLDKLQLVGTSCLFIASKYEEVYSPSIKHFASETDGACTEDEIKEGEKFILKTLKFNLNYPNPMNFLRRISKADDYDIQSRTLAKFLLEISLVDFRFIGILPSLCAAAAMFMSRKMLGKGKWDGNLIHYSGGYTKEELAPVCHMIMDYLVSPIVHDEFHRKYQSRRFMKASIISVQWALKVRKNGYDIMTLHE
T4 sequence (P20486 whole entry partner): as the sequence (P20486 whole entry partner) above
Protocol: as §1, §2, §3, §4

[1] = synthetic competitor peptide 4 mM

Molecule | kcat/KM, Clb5 (Clb5-Cdk1) [relative units] | kcat/KM, Clb3 (Clb3-Cdk1) [relative units] | kcat/KM, Cln2 (Cln2-Cdk1) [relative units] | kcat/KM, Clb2 (Clb2-Cdk1) [relative units] | effect of competitor peptide on Clb5-dependent phosphorylation of Sic1ΔC (Clb5-Cdk1) | effect of competitor peptide on Cln2-dependent phosphorylation of Sic1ΔC (Cln2-Cdk1; [1]) | effect of competitor peptide on Cln2 docking / Cln2-dependent phosphorylation of Sic1ΔC (Cln2-Cdk1; synthetic competitor peptide 4 mM, result in words)
RTT109: purified yeast protein tested as Cdk1 substrate | 0.010 | 0.027 | 0.067 | 0.080 | – | – | –
RVNRILFPT [synthetic peptide based on the RXL2 motif of Sic1] | – | – | – | – | had an effect on Clb5-dependent phosphorylation | 3- to 4 fold | –
VLLPPSRPTS [LP peptide] | – | – | – | – | – | – | competitive inhibitor of the docking
RVNAIAFPT [AXL peptide, similar peptide in which the arginine of the RXL motif was replaced with alanine] | – | – | – | – | only the RXL peptide reduces the specificity of Clb5 | 3- to 4 fold | –
B1 | 0.069 | 0.276 | 2.830 | 0.254 | – | – | –
B2 | 0.004 | 0.029 | 0.025 | 0.069 | – | – | –
B3 | 0.027 | 0.101 | 0.521 | 0.109 | – | – | –
B4 | 0.191 | 0.622 | 2.011 | 0.878 | – | – | –
B5 | 0.024 | 0.043 | 0.157 | 0.034 | – | – | –
B6 | 0.244 | 2.094 | 0.584 | 4.536 | – | – | –
